Measurements published in patent US20240092942A1.
Values belong to the substance of their own block, whether it stands above or below them.

Assays:
[1] = target: huFcγRIIb on CHO^huFcγRIIb cells; experiment: flow cytometry on CHO^huFcγRIIb cells, anti-huCD32 mAb + PE-GAM F(ab')2; histogram peak at about 1.5e3; parental CHO cells: 86 printed
[2] = target: huEGFR on the cell surface (3T3^huEGFR, wild-type HEK293 (EGFR+), A431 cells) (human) (UniProt P00533); experiment: flow cytometry on 3T3^huEGFR cells, PE-conjugated anti-huEGFR mAb; histogram peak at about 2e3; parental 3T3 cells: 176 printed
[3] = target: huEGFR on the cell surface (3T3^huEGFR, wild-type HEK293 (EGFR+), A431 cells) (human) (UniProt P00533); experiment: flow cytometry on 3T3^huEGFR cells, PE-conjugated anti-huEGFR mAb; second number of the panel, given to the second cell line of the key (narrow histogram) [cont.) g, upper panel]
[4] = target: huEGFR on the cell surface (3T3^huEGFR, wild-type HEK293 (EGFR+), A431 cells) (human) (UniProt P00533); experiment: flow cytometry on MDA-MB-231 cells, PE-conjugated anti-huEGFR mAb; first number of the panel, given to the first cell line of the key (broad, most shifted histogram) [cont.) g, upper panel]
[5] = target: PD-L1 on MDA-MB-231 cells (Homo sapiens) (UniProt Q9NZQ7); experiment: flow cytometry on MDA-MB-231 cells, APC-conjugated anti-huPD-L1 mAb; histogram peak at about 3e3 against control at about 2.5e2; 3T3^huEGFR cells (PD-L1 negative): 0 printed [cont.) g, lower panel]
Chain of PD-L1 on MDA-MB-231 cells (Homo sapiens) (Q9NZQ7 19-290 limits assumed): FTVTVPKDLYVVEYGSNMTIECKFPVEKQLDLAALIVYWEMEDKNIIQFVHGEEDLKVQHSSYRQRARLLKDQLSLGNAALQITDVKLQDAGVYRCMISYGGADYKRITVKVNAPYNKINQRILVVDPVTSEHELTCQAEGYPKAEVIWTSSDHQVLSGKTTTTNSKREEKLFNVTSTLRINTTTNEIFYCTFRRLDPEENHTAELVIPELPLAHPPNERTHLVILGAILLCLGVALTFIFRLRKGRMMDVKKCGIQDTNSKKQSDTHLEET

MFI [1]: 1040
Substance: anti-huCD32 mAb (clone FUN-2); the sheet prints only the axis label huFcγRIIb (antibody)

MFI [2]: 1730
MFI [3]: 1820
MFI [4]: 5820
Substance: anti-huEGFR PE-conjugated mAb (clone EGFR.1); the sheet prints only the axis label huEGFR (antibody)

MFI [5]: 3260
Substance: anti-huPD-L1 APC-conjugated mAb (clone MIH1); the sheet prints only the axis label PD-L1 (antibody)
